US20120304318A1, “CANCER DIAGNOSIS AND TREATMENT” (CAMBRIDGE ENTERPRISE LTD, priority 2009, published 2012)

B1: OMD: human osteomodulin protein (SEQ ID NO:1), stably overexpressed in cells from an expression plasmid (protein, listed as Homo sapiens)
chain: MGFLSPIYVIFFFFGVKVHCQYETYQWDEDYDQEPDDDYQTGFPFRQNVDYGVPFHQYTLGCVSECFCPTNFPSSMYCDNRKLKTIPNIPMHIQQLYLQFNEIEAVTANSFINATHLKEINLSHNKIKSQKIDYGVFAKLPNLLQLHLEHNNLEEFPFPLPKSLERLLLGYNEISKLQTNAMDGLVNLTMLDLCYNYLHDSLLKDKIFAKMEKLMQLNLCSNRLESMPPGLPSSLMYLSLENNSISSIPEKYFDKLPKLHTLRMSHNKLQDIPYNIFNLPNIVELSVGHNKLKQAFYIPRNLEHLYLQNNEIEKMNLTVMCPSIDPLHYHHLTYIRVDQNKLKEPISSYIFFCFPHIHTIYYGEQRSTNGQTIQLKTQVFRRFPDDDDESEDHDDPDNAHESPEQEGAEGHFDLHYYENQE
B2: PRELP: human PRELP protein (SEQ ID NO:2), stably overexpressed in cells (myc tagged in EJ28) (protein)
chain: QPTRRPRPGTGPGRRPRPRPRPTPSFPQPDEPAEPTDLPPPLPPGPPSIFPDCPRECYCPPDFPSALYCDSRNLRKVPVIPPRIHYLYLQNNFITELPVESFQNATGLRWINLDNNRIRKIDQRVLEKLPGLVFLYMEKNQLEEVPSALPRNLEQLRLSQNHISRIPPGVFSKLENLLLLDLQHNRLSDGVFKPDTFHGLKNLMQLNLAHNILRKMPPRVPTAIHQLYLDSNKIETIPNGYFKSFPNLAFIRLNYNKLTDRGLPKNSFNISNLLVLHLSHNRISSVPAINNRLEHLYLNNNSIEKINGTQICPNDLVAFHDFSSDLENVPHLRYLRLDGNYLKPPIPLDLMMCFRLLQSVVI
B3: OMD-myc tag: OMD with myc tag in pIRES2-EGFP vector, stably transfected into EJ28 cells (protein, UniProt Q99983 21-421, looked up)
Osteomodulin: QYETYQWDEDYDQEPDDDYQTGFPFRQNVDYGVPFHQYTLGCVSECFCPTNFPSSMYCDNRKLKTIPNIPMHIQQLYLQFNEIEAVTANSFINATHLKEINLSHNKIKSQKIDYGVFAKLPNLLQLHLEHNNLEEFPFPLPKSLERLLLGYNEISKLQTNAMDGLVNLTMLDLCYNYLHDSLLKDKIFAKMEKLMQLNLCSNRLESMPPGLPSSLMYLSLENNSISSIPEKYFDKLPKLHTLRMSHNKLQDIPYNIFNLPNIVELSVGHNKLKQAFYIPRNLEHLYLQNNEIEKMNLTVMCPSIDPLHYHHLTYIRVDQNKLKEPISSYIFFCFPHIHTIYYGEQRSTNGQTIQLKTQVFRRFPDDDDESEDHDDPDNAHESPEQEGAEGHFDLHYYENQE
modifications: myc tag
notes: OMD with myc tag in pIRES2-EGFP vector, stably transfected into EJ28 cells

Key:
EJ28 cells [1] = assay: Apoptosis of stably transfected EJ28 cells with or without Mitomycin C (caspase activity); type: cell-based; settings: for endogenous apoptosis: stable overexpression in EJ28, no drug; for apoptosis induced by Mitomycin C: stable overexpression in EJ28, 1 μg/ml Mitomycin C, caspase activity
Description: Two control EJ28 cells, two OMD stably-transfected EJ28 cells, and a PRELP stably-transfected EJ28 cells are treated with 1 μg/ml of Mitomycin C. Also, as a positive control, EJ28 cells are treated with higher concentration 5 μg/ml of Mitomycin C as a positive control. Then, the ratios of apoptotic cells were determined by measuring caspase activities.
(§1) OMD and PRELP were subcloned into pIRES2-EGFP (Clontech). A bladder cancer cell line, EJ28, was stably transfected with these plasmids by selection with G418. Two independent clones were derived for each plasmid (except MT-Prelp, where it was only possible to derive one). Then, the properties of these cells were examined. […] These cells include apoptotic ones. This contrasted with control cells, which were flat and cuboidal. […] Two independent clones of OMD and EGFP expressing EJ28 cells, two independent control EJ28 clones expressing EGFP, and a PRELP with myc tag and EGFP expressing EJ28 cells were treated with 1 μg/ml Mitomycin C. Also, EGFP expressing EJ28 cells were treated with higher concentration of Mitomycin C (5 μg/ml) as a positive control.

HEK 293 cells = assay: Mitomycin C induced apoptosis in normal cells (annexin and caspase activity assays); type: cell-based; settings: stable overexpression in HEK 293; 1 ug/ml mitomycin C, 24 h
Description: FIG. 10. OMD expression protects normal cells from apoptosis, whilst PRELP expression has no effect. HEK 293 cells stably transfected with either CAT (a control), OMD or PRELP, and assayed to measure the level of apoptosis they underwent in response to treatment with 1 ug/ml mitomycin C. (a) Annexin assay. Cells were treated one dose of the drug, and 24 hours later, they were trypsinized, incubated in the presence of Alexafluor-647 conjugated annexin and propidium iodide, and examined by flow cytometry. The annexin-positive, PI-negative subpopulation, comprising live cells that were in the process of undergoing apoptosis, was identified. (b) Caspase activity assay. One dose of the drug was administered, and 24 h later, cells were incubated in the presence of a substrate that, upon cleavage by caspases, was converted into a luminescent product. Luminescence was quantified and taken to be proportional to caspase activity. In both (a) and (b), error bars refer to standard deviations, and statistical analysis consisted of t-tests.

[2] = test system: EJ28 bladder cancer cell line; assay: Proliferation and cell cycle of stably transfected EJ28 cells (cell counting, BrdU incorporation, FACS); type: cell-based
Description: Also disclosed herein are novel methods for treatment of cancer based on activation of OMD and/or PRELP. […] If so, it can be inferred that the activation of OMD or/and PRELP would inhibit tumourigenesis and provide novel treatment of cancer. […] To this end, OMD or PRELP was stably over-expressed in the bladder cancer cell line EJ28.
as §1

EJ28 cells [3] = assay: Anchorage-independent growth in soft agar; type: cell-based; settings: stable overexpression in EJ28; 2 weeks; relative to control cells
Description: FIG. 14. OMD abolishes, and PRELP inhibits, anchorage-independent growth of EJ28 cells. Cells were seeded in DMEM+0.3% agar, overlying a lower layer of DMEM+0.6% agar. 3000 cells were seeded into wells of a 6-well dish in triplicate. Plates were incubated for 2 weeks, and colonies were counted. Error bars are standard deviations. Statistical analysis consisted of one-way ANOVA, with post-hoc Newman-Keuls testing. Letter groupings, “a”, “b” etc, refer to the results of the Newman-Keuls test.
OMD and PRELP also affect the anchorage-independence, a hallmark of cancer cells. Anchorage-independence was measured by seeding cells in soft agar, incubating them for 2 weeks and counting the number of resultant colonies.

[4] = test system: EJ28 bladder cancer cells; assay: EJ28 xenograft in nude mice, tumour volume; type: in vivo, MF1 nude mice; settings: day 18
Description: To evaluate in vivo effect of OMD or PRELP activation in cancer cells, xenograft experiments were performed using nude mice. EJ28 bladder cancer cells expressing OMD or EJ28 control cells were injected into the mice and cancer development was monitored for three weeks. […] This observation confirms the utility of OMD/PRELP based cancer treatment.
FIG. 15 Effect of xenograft of EJ28 cells overexpressing OMD protein. EJ28 bladder cancer cells or EJ28 cells overexpressing OMD were inoculated into nude mice and then cancer development was monitored for three weeks. The result at 18 days is shown.
Six- to eight-week-old male MF1 nude mice were obtained from Royal Free Hospital London UK. Tumors were induced by inoculation of 5×10^6 EJ28 cancer bladder cells s.c. on the back. EJ28 tumour-bearing MF-1 mice (n=5) were injected with cells subcloned with stably transfected with OMD-myc tag in pIRES2-EGFP vector, using Lipofectamine 2000 (Invitrogen). […] Tumour dimensions were measured continuously using a caliper and tumour volumes were calculated using the equation: volume=(π/6)×a×b×c, where a, b, and c represent three orthogonal axes of the tumour. Animals were assessed for tumour growth over 25-day period.
The biological activity of OMD on EJ28 tumour-bearing mice was determined by measuring changes in tumour volume.

[5] = stable overexpression in EJ28 vs control cells

Molecule	cell death (EJ28 cells [1]; EGFP expressing EJ28 cells, 5 μg/ml Mitomycin C, positive control)	Mitomycin-C mediated apoptosis of normal cells (HEK 293 cells)	endogenous apoptosis (EJ28 cells [1])	apoptosis induced by Mitomycin C (EJ28 cells [1])	cell cycle arrest / inhibition ([2]; stable overexpression in EJ28)	proportion of cells in S-phase (FACS analysis) ([2]; stable overexpression in EJ28)	BrdU incorporation [2, 5]	proliferation (cell-counting assay) [2, 5]	anchorage-independent growth / colony-forming ability in soft agar (EJ28 cells [3])	tumour size ([4]; EJ28 cells stably transfected with OMD-myc tag inoculated s.c. in MF-1 nude mice, control 37.91±16.57)	tumour growth ([4]; OMD-myc tag transfected EJ28 cell line vs vector control)
CO[C@@]12[C@H](COC(N)=O)C3=C(C(=O)C(C)=C(N)C3=O)N1C[C@@H]1N[C@@H]12 [Mitomycin C, reference compound]	massive cell death	–	–	–	–	–	–	–	–	–	–
B1	–	protected normal cells	increased cell death by apoptosis	markedly sensitized	enhanced cell cycle arrest at G1 phase	lower proportion of cells in S-phase	lower rate of BrdU incorporation	proliferated more slowly than control cells	absolutely abolished	–	–
B2	–	had no effect	higher rates of endogenous apoptosis	even higher rates of apoptosis	cell cycle inhibition was not observed	–	–	inhibit proliferation	a third	–	–
B3	–	–	–	–	–	–	–	–	–	1.60±1.0 mm^3	completely inhibited
